The target in test [1] is T1, human LAP-TGFβ1 overexpressed on cells (human, UniProt P01137 30-390).
T1 construct: HT1080 or P3U1 cells overexpressing wild-type human LAP-TGFβ1; also called HT1080-huB1; HT1080-hβ1
Description: flow cytometry; legend box on the sheet: black HT1080-null, grey HT1080-huB1. For orientation: A flow cytometer gives signals particle by particle.

The target in test [2] is T1, human LAP-TGFβ1 overexpressed on cells. Description: cell-based or functional assay.
Test [3] has as its target murine LAP-TGFβ1 overexpressed on cells (mouse, UniProt P04202 30-390). Kind of test: cell-based or functional assay.
Test [4] concerns the target T1, human LAP-TGFβ1 overexpressed on cells. Description: cell-based or functional assay. The source holds these as a separate data set.
For test [5], the target named is T2, fusion protein of a human IgG1 Fc domain and human LAP-TGFβ1 (human, UniProt P01137 30-390).
T2 construct: printed both as Fc-huB1 and LAP-TGFβ-Fc; also called Fc-huB1; Fc-human LAP
Description: BLI, antibody on tip, 1:1 model. As to the method:
(§1) The chimeric antibodies were biotinylated using EZ-Link SulfoNHS-LC-Biotin (ThermoFisher). A streptavidin-functionalized tip was equilibrated in binding buffer (10 mM sodium phosphate, 150 mM sodium chloride, 1% (w/v) bovine serum albumin, 0.05% (w/v) sodium azide, pH 7.4). The tip was dipped in a 10 μg/mL solution of biotinylated, chimeric anti-LAP in binding buffer for 15 seconds to load the tip with antibody. The antibody-loaded tip was then washed in binding buffer and placed in a solution containing 0-24 nM of LAP-TGFβ1 (either a fusion protein containing a human IgG1 Fc domain fused to human LAP-TGFβ1 or a murine LAP-TGFβ1 with a C-terminal polyhistidine purification tag). The antigen was allowed to bind to antibody for 5 minutes (association phase), and then the tip was moved to binding buffer (dissociation phase). The association and dissociation phases were fit to a 1:1 binding model to determine the binding rate constants.
(Biolayer interferometry detects binding as a change in optical thickness at a sensor tip.)

Test [6] addresses T3, murine LAP-TGFβ1 with a C-terminal polyhistidine purification tag (mouse, UniProt P04202 30-390).
T3 construct: also called Mouse LAP-TGFβ1
Kind of test: BLI, antibody on tip, 1:1 model. As to the method: as §1

Test [7] has as its target T4, human LAP-TGFβ2 overexpressed on HT1080 cells (human, UniProt P61812 21-414).
T4 construct: also called HT1080-huB2
T4 sequence: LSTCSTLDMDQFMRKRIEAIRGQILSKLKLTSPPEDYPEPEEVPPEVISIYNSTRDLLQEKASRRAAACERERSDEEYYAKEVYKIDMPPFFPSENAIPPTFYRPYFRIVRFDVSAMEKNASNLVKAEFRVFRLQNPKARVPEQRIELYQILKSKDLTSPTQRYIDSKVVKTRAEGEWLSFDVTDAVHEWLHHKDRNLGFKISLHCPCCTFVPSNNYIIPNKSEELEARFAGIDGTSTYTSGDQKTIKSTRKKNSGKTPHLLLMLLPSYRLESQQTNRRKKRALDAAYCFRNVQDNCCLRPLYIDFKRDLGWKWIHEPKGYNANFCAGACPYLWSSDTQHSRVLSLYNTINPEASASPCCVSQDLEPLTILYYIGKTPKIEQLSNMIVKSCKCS
Kind of test: flow cytometry titration, HT1080-huB2 cells. On the procedure:
(§2) This Example describes the binding of anti-LAP antibodies to LAP-TGFβ isoforms and LAP-TGFβ variants. In addition to antibodies 28G11_hIgG1, 22F9_hIgG1, and 20E6_hIgG1, anti-LAP antibodies 17G8_hIgG1, 24E3_hIgG1, and 2C9_(hyb) were also tested in this experiment. Briefly, 4×10⁵ each of (a) HT1080 cells, (b) HT1080 cells overexpressing human LAP-TGFβ1, (c) HT1080 cells overexpressing human LAP-TGFβ2, (d) HT1080 cells overexpressing human LAP-TGFβ3, (e) HT1080 cells overexpressing murine LAP-TGFβ1, (f) P3U1 cells, (g) P3U1 cells overexpressing LAP-TGFβ1 and GARP, and (h) P3U1 cells overexpressing LAP-TGFβ1 and LRRC33 were cultured in 96-well plates. The plates were centrifuged for 5 min at 1,500 rpm, liquid was removed, and cells were resuspended with 200 μL FACS buffer. The plates were centrifuged again, diluted primary antibody was added to each well, and the plates were incubated on ice for 20 minutes, followed by centrifugation. The cells were resuspended in 200 μL FACS buffer, centrifuged again, and resuspended in 50 μL diluted secondary antibody (Alexa647-anti-Human IgG or APC-anti-Mouse IgG). The plates were incubated on ice for 20 minutes in the dark, washed twice with 200 μL FACS buffer, and cells from each well (in 200 μL FACS buffer) were read on the Attune NXT instrument.

Test [8] has as its target T5, human LAP-TGFβ3 overexpressed on HT1080 cells (human, UniProt P10600 24-412).
T5 construct: also called HT1080-huB3
T5 sequence: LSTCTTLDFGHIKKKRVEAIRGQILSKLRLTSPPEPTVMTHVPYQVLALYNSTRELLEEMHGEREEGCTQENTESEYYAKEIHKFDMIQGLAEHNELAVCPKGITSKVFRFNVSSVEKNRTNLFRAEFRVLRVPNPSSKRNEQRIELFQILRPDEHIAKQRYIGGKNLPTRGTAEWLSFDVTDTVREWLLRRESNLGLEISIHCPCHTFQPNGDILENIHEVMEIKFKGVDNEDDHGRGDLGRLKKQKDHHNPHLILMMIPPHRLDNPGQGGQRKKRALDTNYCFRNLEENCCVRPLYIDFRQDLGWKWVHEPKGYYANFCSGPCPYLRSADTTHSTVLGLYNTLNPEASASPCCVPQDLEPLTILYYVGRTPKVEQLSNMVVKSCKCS
Kind of test: flow cytometry titration, HT1080-huB3 cells. As to the method:
as §2

Test [9] concerns the target T6, human-chicken LAP-TGFβ1 chimera #2.2 on HT1080 cells (human/chicken chimera, UniProt P01137 30-390).
T6 construct: also called HT1080-ch2.2
Description: flow cytometry, HT1080 cells; grey bar = no anti-LAP antibody. On the procedure: as §2
(§3) Cells were processed for flow cytometry in the same manner described above for the isoform-specific binding experiments.

In test [10] the target is T7, human LAP-TGFβ1 with K27C and Y75C mutations on HT1080 cells (human, UniProt P01137 30-390).
T7 construct: also called closed conformation
Described as above. On the procedure: as §2, §3

Test [11] has as its target T8, human LAP-TGFβ1 with a Y74T mutation on HT1080 cells (human, UniProt P01137 30-390).
T8 construct: also called HT1080-Y74T; open conformation
The test is described as above. As to the method: as §2, §3

Test [12] deals with T9, LAP-only variant of human TGFβ1 (empty LAP) on HT1080 cells (human, UniProt P01137 30-277).
T9 construct: LAP without the mature cytokine; also called HT1080-emptyLAP; LAP-only construct
Described as above. On the procedure:
as §2, §3

Test [13] has as its target T10, mature human TGFβ1 (free TGFβ1, without LAP) (human, UniProt P01137 279-390).
T10 construct: also called mature TGFβ; free human TGFβ1
Description: TGFβ1 ELISA after pre-incubation of 1000 pg mature TGFβ1 with antibody; loss of signal reflects binding. As to the method: To determine whether anti-LAP antibodies 28G11_hIgG1, 22F9_hIgG1, 20E6_hIgG1, 17G8_hIgG1, and 24E3_hIgG1, bind to free human TGFβ1 (i.e., mature TGFβ1 that lacks LAP), the ability of the antibodies to inhibit an anti-TGFβ ELISA was evaluated. Briefly, mature TGFβ1 (1000 pg) was incubated with the indicated anti-LAP antibodies at 10 μg/mL, an isotype control antibody as a negative control or the commercially available anti-TGFβ antibody 1D11 as a positive control for 10 minutes on ice. For example, the 1D11 antibody is commercially available from any number of sellers, for example Bio x Cell Inc. (West Lebanon, N.H.). Supernatants were assayed in a TGFβ1 ELISA (R&D Systems) according to the manufacturer instructions to measure free TGFβ1. […] Note that Figure and FIG. are used interchangeably in this application.
In general terms: ELISA stands for enzyme-linked immunosorbent assay.

In test [14] the target is T11, human GARP and human LAP-TGFβ1 co-expressed on P3U1 cells (human, UniProt Q14392 20-662).
T11 construct: whole, on cells; also called P3U1 cells over-expressing human GARP and LAP-TGFβ1
Kind of test: flow cytometry, P3U1 cells. As to the method:
as §2

Test [15] deals with T12, human-chicken LAP-TGFβ1 chimera #2.3 on HT1080 cells (human/chicken chimera, UniProt P01137 30-390).
T12 construct: also called HT1080-ch2.3
Kind of test: flow cytometry, HT1080 cells; grey bar = no anti-LAP antibody. On the procedure:
as §2, §3

In general, Kd refers to the concentration at which binding is half-saturated. As a reminder, the koff is a measure of how fast the partners let go of each other. Low values mean slow dissociation, high ones fast dissociation. As usually defined, the kon is the second-order rate constant of association. The low end stands for slower complex formation, the high end for faster complex formation.

Residue numbers refer to the chain shown, from its start. Where “and” joins values, the source holds several entries; their conditions need not be identical. Identical values can stand only once.

Chain of murine LAP-TGFβ1 overexpressed on cells (P04202 30-390): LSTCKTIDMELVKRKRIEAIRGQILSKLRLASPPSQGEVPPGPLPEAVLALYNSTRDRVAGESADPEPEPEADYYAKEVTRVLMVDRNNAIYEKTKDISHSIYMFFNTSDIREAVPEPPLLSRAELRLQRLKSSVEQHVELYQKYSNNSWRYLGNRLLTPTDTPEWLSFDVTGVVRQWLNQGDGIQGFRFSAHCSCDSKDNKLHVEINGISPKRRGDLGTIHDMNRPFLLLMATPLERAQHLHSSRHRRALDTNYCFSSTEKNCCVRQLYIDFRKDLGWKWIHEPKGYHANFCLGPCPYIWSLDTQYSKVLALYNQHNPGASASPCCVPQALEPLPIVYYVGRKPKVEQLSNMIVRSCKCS
T3 sequence (P04202 30-390 limits assumed): as the sequence (P04202 30-390) above
T7 sequence (P01137 other isoform, or with tags, fused parts or gaps K27C Y75C K27C Y75C): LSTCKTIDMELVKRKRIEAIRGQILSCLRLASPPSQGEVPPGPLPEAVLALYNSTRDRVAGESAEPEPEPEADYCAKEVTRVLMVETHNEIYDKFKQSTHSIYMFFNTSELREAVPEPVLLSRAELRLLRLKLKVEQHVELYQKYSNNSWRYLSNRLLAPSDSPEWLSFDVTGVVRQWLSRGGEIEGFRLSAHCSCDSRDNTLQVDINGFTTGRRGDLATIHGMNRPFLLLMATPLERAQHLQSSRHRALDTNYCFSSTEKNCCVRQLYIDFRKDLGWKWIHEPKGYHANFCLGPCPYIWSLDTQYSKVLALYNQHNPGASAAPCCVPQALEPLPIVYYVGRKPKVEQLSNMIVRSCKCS
T10 sequence (P01137 279-390 limits assumed): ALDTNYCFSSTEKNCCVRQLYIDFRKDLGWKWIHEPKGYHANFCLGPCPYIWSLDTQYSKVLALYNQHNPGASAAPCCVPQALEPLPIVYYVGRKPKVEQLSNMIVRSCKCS
T9 sequence (P01137 30-277, change not shown): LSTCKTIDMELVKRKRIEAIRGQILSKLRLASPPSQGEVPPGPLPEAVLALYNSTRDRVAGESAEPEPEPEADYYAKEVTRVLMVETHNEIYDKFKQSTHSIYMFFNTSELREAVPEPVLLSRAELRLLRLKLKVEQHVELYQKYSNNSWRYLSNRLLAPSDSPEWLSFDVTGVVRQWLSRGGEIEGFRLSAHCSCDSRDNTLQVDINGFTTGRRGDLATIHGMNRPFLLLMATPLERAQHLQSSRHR
T1 sequence (P01137 30-390): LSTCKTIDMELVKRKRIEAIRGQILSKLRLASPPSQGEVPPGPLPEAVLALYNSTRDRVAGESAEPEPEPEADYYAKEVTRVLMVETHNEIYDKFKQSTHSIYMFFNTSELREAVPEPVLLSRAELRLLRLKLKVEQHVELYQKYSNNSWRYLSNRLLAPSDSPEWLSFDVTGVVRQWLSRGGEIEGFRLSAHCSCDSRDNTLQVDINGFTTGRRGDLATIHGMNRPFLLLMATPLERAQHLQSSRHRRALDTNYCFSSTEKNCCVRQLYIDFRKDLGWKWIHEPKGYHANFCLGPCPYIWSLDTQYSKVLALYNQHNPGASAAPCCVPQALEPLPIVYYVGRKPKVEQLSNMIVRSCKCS
T2 sequence (P01137 30-390 limits assumed): as the sequence (P01137 30-390) above
T6 sequence (P01137 other isoform, or with tags, fused parts or gaps mutant): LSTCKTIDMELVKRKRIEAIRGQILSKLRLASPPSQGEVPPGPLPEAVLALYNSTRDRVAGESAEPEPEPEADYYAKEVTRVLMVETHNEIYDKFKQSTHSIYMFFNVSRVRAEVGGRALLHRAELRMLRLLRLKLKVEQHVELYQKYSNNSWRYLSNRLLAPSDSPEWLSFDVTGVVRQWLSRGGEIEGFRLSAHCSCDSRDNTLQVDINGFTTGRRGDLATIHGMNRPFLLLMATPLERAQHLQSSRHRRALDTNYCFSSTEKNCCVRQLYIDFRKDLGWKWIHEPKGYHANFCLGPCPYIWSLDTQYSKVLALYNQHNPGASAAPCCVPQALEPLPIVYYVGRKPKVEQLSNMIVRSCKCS
T8 sequence (P01137 other isoform, or with tags, fused parts or gaps Y74T Y74T): as the sequence (P01137 other isoform, or with tags, fused parts or gaps K27C Y75C K27C Y75C) above, with C27K, Y74T, C75Y counted along it
T11 sequence (chain, as listed by the source, chain 1 of 2): as the sequence (P01137 30-390) above
T11 sequence (Q14392 20-662, chain 2 of 2): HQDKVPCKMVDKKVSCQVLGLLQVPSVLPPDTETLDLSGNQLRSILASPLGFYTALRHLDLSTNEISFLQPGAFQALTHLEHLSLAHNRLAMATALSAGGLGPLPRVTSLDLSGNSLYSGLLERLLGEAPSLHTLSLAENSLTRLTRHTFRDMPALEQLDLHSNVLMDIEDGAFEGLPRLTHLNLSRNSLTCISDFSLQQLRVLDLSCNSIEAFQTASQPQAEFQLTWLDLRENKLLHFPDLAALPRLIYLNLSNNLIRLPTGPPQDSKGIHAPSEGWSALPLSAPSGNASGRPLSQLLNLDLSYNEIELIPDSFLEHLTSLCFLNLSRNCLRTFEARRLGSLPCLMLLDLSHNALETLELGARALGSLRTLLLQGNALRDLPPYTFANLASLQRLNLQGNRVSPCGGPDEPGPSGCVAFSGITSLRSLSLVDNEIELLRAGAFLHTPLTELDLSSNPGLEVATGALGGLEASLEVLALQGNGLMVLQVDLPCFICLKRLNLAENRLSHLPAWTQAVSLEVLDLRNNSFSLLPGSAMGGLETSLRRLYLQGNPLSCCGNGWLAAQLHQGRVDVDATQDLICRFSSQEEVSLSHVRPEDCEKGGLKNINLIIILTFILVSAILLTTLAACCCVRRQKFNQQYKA
T12 sequence (P01137 other isoform, or with tags, fused parts or gaps mutant): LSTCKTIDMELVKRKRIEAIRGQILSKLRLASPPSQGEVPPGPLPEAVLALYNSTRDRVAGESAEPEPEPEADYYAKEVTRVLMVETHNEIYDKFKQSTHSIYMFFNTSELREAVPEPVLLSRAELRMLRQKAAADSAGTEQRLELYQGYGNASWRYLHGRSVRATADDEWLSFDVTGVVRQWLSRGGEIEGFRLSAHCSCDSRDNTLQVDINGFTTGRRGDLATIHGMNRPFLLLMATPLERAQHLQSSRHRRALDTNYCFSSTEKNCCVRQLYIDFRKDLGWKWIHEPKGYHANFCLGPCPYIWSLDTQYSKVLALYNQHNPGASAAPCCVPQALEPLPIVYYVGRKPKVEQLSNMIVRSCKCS

B1: 28G11_H2.1L3 (antibody, human IgG1, kappa, V domains shown)
VH: EVQLVESGGGLVQPGGSLRLSCAASGFTFTDYYMSWVRQAPGKGLEWLGFIRNKPQGYTTEYSASVKGRFTISRDNSQSSLYLQMNSLKTEDTAVYYCARYTGGGYFDYWGQGTLLTVSS
VL: DIQMTQSPSSLSASVGDRLTISCRASQDISNYLNWYQQKPGKTVKLLIYYTSRLHSGVPSRFSGSGSGTDYTLTISSLQPEDVATYFCQQGDTLPWTFGQGTKLEIKR
With B1, the binding result in test [1] was “binds”.

B2: 28G11_H2aL3a (antibody, human IgG1, kappa, V domains shown)
VH: B1 VH with L48V, Q56N, Q78K, S79N, L116V
VL: B1 VL with T43V, F87Y
With B2, the binding result in test [1] was “binds”.

B3: 28G11_hIgG1 (antibody, V domains shown)
VH: EVKLVESGGGLVQPGGSLSLSCAASGFTFTDYYMSWVRQPPGKALEWLGFIRNKPNGYTTEYSASVKGRFTISRDNSQSILYLQMNVLRAEDSATYYCARYTGGGYFDYWGQGTTLTVSS
VL: DIQMTQTTSSLSASLGDRLTISCRASQDISNYLNWYQQKPDGTVKLLIYYTSRLHSGVPSRFSGSGSGTDYSLTISNLEQADIATYFCQQGDTLPWTFGGGTKLEIK
For B3, the entries for the “IC50 of inhibition of TGFβ1 activation (ELISA of active TGFβ1)” value in [2] and in [3] were 1.4 µg/mL and 1 µg/mL, respectively. Moreover, in [4], the “Inhibition of human TGFβ1 activation (IC50)” value stood at 2.3 µg/mL. Also, the figures for the Kd in [5] and in test [6] were 0.67 nM and 0.19 nM, respectively. Besides, the koff in test [5] stood at 0.00036 s⁻¹; in test [6], 0.000158 s⁻¹. Also, the kon was 540000 M⁻¹ s⁻¹ in test [5] and 840000 M⁻¹ s⁻¹ in test [6]. Moreover, the binding result is “no binding (tested: about 800 ng/well)” in test [7]; “no binding (tested: about 800 ng/well)” in test [8]; “no binding” in [9]; “binds” in [10]; “no binding” in test [11]; “no binding” in [12]. In addition, in test [13], the binding result is listed as “no binding (tested: 10 µg/mL)”.

B4: 24E3_hIgG1 (antibody, V domains shown)
VH: QAYLQQSGAELVRPGASVKMSCKASGYTFTSYNMHWVKQTPRQGLEWIGAIYPGNGDTSYNPKFKGKATLTVDKSSSTAYMQLSSLTSEDSAVYFCTRWDWGGYFDVWGTGTTVTVSS
VL: B3 VL with L19V, A81E, E105G
As for B4, the “IC50 of inhibition of TGFβ1 activation” value in [2] is 2.5 µg/mL and 2.6 µg/mL; in [3], 1.1 µg/mL and 0.76 µg/mL. Also, the binding result in test [14] is given as “binds”; in test [7], “no binding (tested: about 800 ng/well)”; in [8], “no binding (tested: about 800 ng/well)”; in test [9] it was “no binding”; in [15] it was “binds”; in test [10], “binds”. Also, the binding result is “no binding” in test [11], “no binding” in test [12] and “no binding (tested: 10 µg/mL)” in test [13].

B5: 17G8_hIgG1 (antibody, V domains shown)
VH: B3 VH with P55A, V87A, T102K, G103L, Y109V, Q112T, L116V
VL: B3 VL with L19V, A81E, D92N
Consider B5, for which the “IC50 of inhibition of TGFβ1 activation” value in test [2] is 1 /ml (as printed) and 1.5 ug/ml; in test [3], 1.4 µg/mL and 0.59 µg/mL. For the same molecule, the binding result in test [14] is on record as “binds”; in [7], “no binding (tested: about 800 ng/well)”; in [8], “no binding (tested: about 800 ng/well)”; in [9], “no binding”; in test [15], “binds”; in [10], “binds”. Further, the binding result in [11] was “no binding”; in test [12], “no binding”; in [13] it was “no binding (tested: 10 µg/mL)”.
